Read-outs that look alike come from different tables or passages of the source.
B1: histidine phosphocarrier protein HPr (natural protein)
chain: not shown
B2: Enzyme I (EI), full length (residues 1-575), from E. coli (enzyme)
chain: not shown

Key:
[1] = biological target: B2; assay: ITC
[2] = biological target: B2; assay: ITC; remark: listed apart in the source
[3] = biological target: the molecule itself; assay: AUC

Binder | Kd [1] [µM] | Kd [2] [µM] | stoichiometry N [3]
B1 | 21 ± 1.1 | 6.8 ± 1.8 | –
B2 | – | – | 2
